Reference: publication PMC6061791 (Nucleic Acids Research, 2018)
Changes are numbered by the printed parent chain. Numbers in names are those of the source. Blank lines part the entries; values can stand above or below the binder they belong to.

Legend:
[1] = target: T1, DapF (diaminopimelate epimerase), wild type, N-terminal 6×His tag (Escherichia coli, UniProt P0A6K1 1-274); experiment: AUC
T1 sequence (looked up): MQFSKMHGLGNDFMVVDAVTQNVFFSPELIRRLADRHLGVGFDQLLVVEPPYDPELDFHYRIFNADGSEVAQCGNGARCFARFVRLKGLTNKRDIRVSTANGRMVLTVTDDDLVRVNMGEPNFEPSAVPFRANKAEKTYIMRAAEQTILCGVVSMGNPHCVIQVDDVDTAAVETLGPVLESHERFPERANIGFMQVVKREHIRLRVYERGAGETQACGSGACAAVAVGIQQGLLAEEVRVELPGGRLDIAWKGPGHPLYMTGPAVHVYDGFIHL

[2] = target: T2, DapF (Y268A), N-terminal 6×His tag (Escherichia coli, UniProt P0A6K1 1-274, Y268A); experiment: AUC
T2 sequence (looked up): T1 sequence (looked up) with Y268A

[3] = target: T3, DapF (N22A), N-terminal 6×His tag (Escherichia coli, UniProt P0A6K1 1-274, N22A); experiment: ITC
T3 sequence (looked up): T1 sequence (looked up) with N22A

[4] = target: T1, DapF (diaminopimelate epimerase), wild …; experiment: ITC
[5] = target: T4, DapF (T20A), N-terminal 6×His tag (Escherichia coli, UniProt P0A6K1 1-274, T20A); experiment: ITC
T4 sequence (looked up): T1 sequence (looked up) with T20A

[6] = target: T5, DapF (L89A), N-terminal 6×His tag (Escherichia coli, UniProt P0A6K1 1-274, L89A); experiment: ITC
T5 sequence (looked up): T1 sequence (looked up) with L89A

[7] = target: T6, RppH;DapF (Escherichia coli DH5alpha;Escherichia …, UniProt P0A776;P0A6K1 1-176;1-274, |); experiment: ITC
T6 sequence 1: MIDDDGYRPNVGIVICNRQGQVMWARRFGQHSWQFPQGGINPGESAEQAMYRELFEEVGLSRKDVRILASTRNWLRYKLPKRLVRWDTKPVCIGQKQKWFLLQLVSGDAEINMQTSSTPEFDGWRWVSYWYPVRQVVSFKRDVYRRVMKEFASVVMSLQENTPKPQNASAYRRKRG
T6 sequence 2: T1 sequence (looked up)

[8] = target: T7, DapF (Escherichia coli DH5alpha, UniProt P0A6K1 1-274); experiment: ITC
T7 sequence: T1 sequence (looked up)

[9] = target: T8, RppH (Escherichia coli DH5alpha, UniProt P0A776 1-176); experiment: ITC
T8 sequence: T6 sequence 1

stoichiometry N [1]: 1 RppH per DapF (2:2 heterotetramer)
stoichiometry N [2]: 1 RppH per DapF (1:1 heterodimer)
Kd [3]: 0.3 ± 0.1 nM
dH [3]: -16.4 ± 0.1 kcal⋅mol^-1
stoichiometry N [3]: 0.96
Kd [4]: 0.8 ± 0.4 nM
dH [4]: -13 ± 0.1 kcal⋅mol^-1
stoichiometry N [4]: 0.95
Kd [5]: 4.2 ± 1.8 nM
dH [5]: -14.4 ± 0.2 kcal⋅mol^-1
stoichiometry N [5]: 0.97
Kd [6]: 5.2 ± 0.9 nM
dH [6]: -10.4 ± 0.1 kcal⋅mol^-1
stoichiometry N [6]: 1.06
B1: RppH (RNA pyrophosphohydrolase), wild type, GST tag removed (enzyme, Escherichia coli, UniProt P0A776 1-176, looked up)
chain: T6 sequence 1

Kd [4]: 2.3 ± 1 nM
dH [4]: -14.6 ± 0.1 kcal⋅mol^-1
stoichiometry N [4]: 1.01
B2: RppH (R145A), GST tag removed (enzyme, Escherichia coli, UniProt P0A776 1-176, looked up)
chain: T6 sequence 1 with R145A

Kd [4]: 12.8 ± 6 nM
dH [4]: -12.5 ± 0.3 kcal⋅mol^-1
stoichiometry N [4]: 0.85
B3: RppH (S128A), GST tag removed (enzyme, Escherichia coli, UniProt P0A776 1-176, looked up)
chain: T6 sequence 1 with S128A

Kd [4]: 4.8 ± 1.8 nM
dH [4]: -11 ± 0.2 kcal⋅mol^-1
stoichiometry N [4]: 1.05
B4: RppH (D142A), GST tag removed (enzyme, Escherichia coli, UniProt P0A776 1-176, looked up)
chain: T6 sequence 1 with D142A

Binder: AGAACAAC (ssRNA, 5'-triphosphate) [8 nt RNA pppAGAACAAC]
Kd [7]: ~120000 nM
binding result [8]: no binding
binding result [9]: binds
